Measured values from patent publication US20220031841A1 (ABSCI, published 2022).
Blank lines part the entries; values can stand above or below the binder they belong to.

Columns and labels:
[1] = target: T1, Kinesin light chain 4 protein (KLC4) (human, UniProt Q9NSK0 2-619); experiment: HuProt protein array, antibody at 1 µg/ml, Alexa-647 anti-human IgG Fc; F635 signal as z-score; KLC4 replicate 1
T1 construct: The array carries full-length recombinant human proteins expressed in S. cerevisiae; also called Human KLC4
Description: (§1) Large scale protein arrays are versatile and sensitive platforms for antibody specificity evaluation. They can be used for the evaluation of protein binding or affinity reagents that are widely employed in research and clinical applications. The microarray used in our target identification experiment provides the largest number of unique, full-length, individually purified human proteins on a single microscope slide. This allows thousands of interactions to be profiled in a high-throughput manner. The hill-length recombinant proteins are expressed in the yeast S. cerevisiae, purified, and printed on glass slides in duplicate along with a set of control proteins (GST, BSA, histones, IgG, etc.). Such microarray is not restricted to a particular type of surface coating, although the default is glass coated with ultra-thin nitrocellulose film for the non-covalent, yet irreversible, capture of active proteins to the surface. Fourteen Protein arrays were used for the antibody cross-reactivity assay of the samples. […] The antibody-antigen binding score was calculated for each protein represented on the array and expressed as z-scores. […]
(§2) Z score is the average Z score of the duplicate spots of a given protein (each protein is printed in duplicate on a HuProt™ array). The Z score of each spot on a given array is calculated according to the equation: […]

[2] = target: T1, Kinesin light chain 4 protein (KLC4); experiment: HuProt protein array, F635 z-score
Summary of the method: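 Signal from an Alexa-647 anti-human IgG Fc gamma secondary is converted to a z-score per spot and averaged across the two duplicate spots. Primary antibody incubation: 1 μg/ml, room temperature, 1 hour, on arrays of full-length yeast-expressed proteins.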

[3] = target: T2, Melanoma-associated antigen 3 (MAGE-A3) (human, UniProt P43357 1-314); experiment: HuProt protein array, antibody at 1 µg/ml, Alexa-647 anti-human IgG Fc; F635 signal as z-score; MAGEA3 replicate 1
T2 construct: The array carries full-length recombinant human proteins expressed in S. cerevisiae; also called Human MAGE-A3
Description: as §1, §2

[4] = target: T3, O-linked N-acetylglucosamine (GlcNAc) transferase (OGT) (human, UniProt O15294 2-1046); experiment: HuProt protein array, antibody at 1 µg/ml, Alexa-647 anti-human IgG Fc; F635 signal as z-score; OGT replicate 1
T3 construct: The array carries full-length recombinant human proteins expressed in S. cerevisiae; also called Human OGT
T3 sequence: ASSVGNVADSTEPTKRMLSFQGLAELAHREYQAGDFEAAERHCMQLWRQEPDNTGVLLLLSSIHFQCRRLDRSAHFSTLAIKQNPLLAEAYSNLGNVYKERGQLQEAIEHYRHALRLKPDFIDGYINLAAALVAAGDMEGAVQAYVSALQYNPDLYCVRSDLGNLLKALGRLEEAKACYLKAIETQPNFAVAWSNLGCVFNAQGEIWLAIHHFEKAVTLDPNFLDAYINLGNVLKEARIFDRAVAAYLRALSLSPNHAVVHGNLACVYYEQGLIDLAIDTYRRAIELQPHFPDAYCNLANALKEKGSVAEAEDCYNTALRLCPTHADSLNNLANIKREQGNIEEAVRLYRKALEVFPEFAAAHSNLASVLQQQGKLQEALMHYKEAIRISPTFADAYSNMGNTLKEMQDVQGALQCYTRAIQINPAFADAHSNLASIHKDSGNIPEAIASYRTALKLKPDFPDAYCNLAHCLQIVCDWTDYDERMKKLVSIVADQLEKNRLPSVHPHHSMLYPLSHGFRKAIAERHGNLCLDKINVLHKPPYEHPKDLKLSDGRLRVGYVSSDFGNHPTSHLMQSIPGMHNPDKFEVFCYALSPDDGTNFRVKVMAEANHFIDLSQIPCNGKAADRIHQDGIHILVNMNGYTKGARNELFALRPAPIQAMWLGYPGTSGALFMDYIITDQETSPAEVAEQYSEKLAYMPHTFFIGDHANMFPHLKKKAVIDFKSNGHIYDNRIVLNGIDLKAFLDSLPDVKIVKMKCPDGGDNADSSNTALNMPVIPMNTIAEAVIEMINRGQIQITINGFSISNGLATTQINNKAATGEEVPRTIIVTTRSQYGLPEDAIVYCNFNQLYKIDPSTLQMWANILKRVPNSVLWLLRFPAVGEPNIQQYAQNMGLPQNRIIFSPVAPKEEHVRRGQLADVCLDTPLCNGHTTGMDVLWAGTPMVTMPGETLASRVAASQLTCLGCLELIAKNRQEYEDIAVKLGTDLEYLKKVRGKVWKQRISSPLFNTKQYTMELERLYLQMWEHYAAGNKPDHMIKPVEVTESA
Description: as §1, §2

[5] = target: T4, Inorganic pyrophosphatase (PPA1) (human, UniProt Q15181 2-289); experiment: HuProt protein array, antibody at 1 µg/ml, Alexa-647 anti-human IgG Fc; F635 signal as z-score; PPA1 replicate 1
T4 construct: The array carries full-length recombinant human proteins expressed in S. cerevisiae; also called Human PPA1
T4 sequence: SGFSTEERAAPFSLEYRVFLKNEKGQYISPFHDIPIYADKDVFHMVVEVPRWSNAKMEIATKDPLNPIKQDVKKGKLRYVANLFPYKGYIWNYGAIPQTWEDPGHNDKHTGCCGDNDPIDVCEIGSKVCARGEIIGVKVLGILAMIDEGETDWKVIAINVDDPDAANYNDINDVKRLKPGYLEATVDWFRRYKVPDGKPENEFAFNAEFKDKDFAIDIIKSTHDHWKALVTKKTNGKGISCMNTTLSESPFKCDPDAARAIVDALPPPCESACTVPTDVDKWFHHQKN
Description: as §1, §2

[6] = target: T5, Alpha-taxilin (TXLNA) also known as interleukin-14A (human, UniProt P40222 1-546); experiment: HuProt protein array, antibody at 1 µg/ml, Alexa-647 anti-human IgG Fc; F635 signal as z-score; TXLNA replicate 1
T5 construct: The array carries full-length recombinant human proteins expressed in S. cerevisiae; also called IL-14A; TXLNA/IL-14A
Description: as §1, §2

T1 sequence (Q9NSK0 2-619 limits assumed): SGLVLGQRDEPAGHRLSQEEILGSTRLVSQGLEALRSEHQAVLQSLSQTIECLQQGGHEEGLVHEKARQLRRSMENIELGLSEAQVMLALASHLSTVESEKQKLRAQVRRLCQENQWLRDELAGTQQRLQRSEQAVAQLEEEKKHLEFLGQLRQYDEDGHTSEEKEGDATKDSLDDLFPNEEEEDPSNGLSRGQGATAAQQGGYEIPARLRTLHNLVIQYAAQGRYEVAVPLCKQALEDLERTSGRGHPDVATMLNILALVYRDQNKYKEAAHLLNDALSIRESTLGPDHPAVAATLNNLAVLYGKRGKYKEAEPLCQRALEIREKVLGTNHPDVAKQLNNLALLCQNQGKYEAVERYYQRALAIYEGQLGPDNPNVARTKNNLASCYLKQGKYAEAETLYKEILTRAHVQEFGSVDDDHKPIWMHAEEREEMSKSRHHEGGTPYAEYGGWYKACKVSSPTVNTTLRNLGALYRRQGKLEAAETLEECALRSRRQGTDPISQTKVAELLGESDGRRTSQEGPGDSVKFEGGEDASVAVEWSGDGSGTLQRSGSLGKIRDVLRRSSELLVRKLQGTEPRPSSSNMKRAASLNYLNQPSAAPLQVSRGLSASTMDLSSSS
T5 sequence (P40222 whole entry): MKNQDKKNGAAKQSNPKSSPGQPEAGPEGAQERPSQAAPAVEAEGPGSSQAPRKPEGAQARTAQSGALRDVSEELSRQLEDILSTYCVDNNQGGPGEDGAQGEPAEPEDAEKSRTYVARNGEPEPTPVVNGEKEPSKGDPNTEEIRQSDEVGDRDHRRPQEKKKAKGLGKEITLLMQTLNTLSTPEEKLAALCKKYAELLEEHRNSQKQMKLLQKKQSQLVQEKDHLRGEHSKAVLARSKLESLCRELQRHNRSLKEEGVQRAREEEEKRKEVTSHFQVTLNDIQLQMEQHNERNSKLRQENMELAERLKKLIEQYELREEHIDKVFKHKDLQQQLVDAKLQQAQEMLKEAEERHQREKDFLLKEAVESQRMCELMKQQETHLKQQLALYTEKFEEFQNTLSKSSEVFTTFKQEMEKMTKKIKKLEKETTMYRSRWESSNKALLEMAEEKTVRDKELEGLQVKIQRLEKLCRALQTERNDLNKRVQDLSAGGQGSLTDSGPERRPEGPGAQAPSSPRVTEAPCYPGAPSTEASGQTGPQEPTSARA
T2 sequence (P43357 whole entry): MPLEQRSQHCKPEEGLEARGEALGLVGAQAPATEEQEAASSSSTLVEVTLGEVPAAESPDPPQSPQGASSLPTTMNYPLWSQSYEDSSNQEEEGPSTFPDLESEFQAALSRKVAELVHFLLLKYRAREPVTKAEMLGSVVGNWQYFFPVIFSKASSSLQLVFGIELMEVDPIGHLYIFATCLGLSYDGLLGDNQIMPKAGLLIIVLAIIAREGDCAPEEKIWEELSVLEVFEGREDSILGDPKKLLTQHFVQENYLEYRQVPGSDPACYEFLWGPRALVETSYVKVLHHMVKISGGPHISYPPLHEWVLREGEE

- binding result [2]: no binding (tested: 1 µg/ml)
B2: TMEL1013 (antibody, V domains shown)
VH: PVQLVQSGAEVKKPGSSVKVSCKASGGTFSSYTINWVRQAPGQGLEWMGRIIPILGVANYAQKFQGRVTITADKSTSTAYMDLSSLRSEDTAVYYCAREWERAFDYWGQGTLVTVSS
VL: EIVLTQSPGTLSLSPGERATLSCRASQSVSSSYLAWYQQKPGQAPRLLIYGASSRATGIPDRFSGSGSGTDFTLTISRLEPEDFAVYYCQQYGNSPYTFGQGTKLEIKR

- binding result [5]: binds
B5: TMEL1010 (antibody, V domains shown)
VH: QVQLVQSGAEVKKPGASVKVSCKASGYTFSSYGISWVRQAPGQGLEWMGWISAYNGNTNYAKKLQGRVTMTTDTSTSTAYLELRSLRSDDTAVYYCARGDGPFDYWGQGTLVTVSS
VL: EIVMTQSPATLSVSPGERATLSCWASQSVSSSLAWYQQKPGQAPRLLMYGASNRATGIPARFSGSGSGTEFTLTISSLQSEDFAVYYCQQYNKWPPDTFGQGTKLEIKR
notes: It was detected with an anti-human IgG Fc gamma secondary antibody

- binding result [6]: binds
B6: TMEL1011 (antibody, V domains shown)
VH: PVQLVQSGAEVKKPGSSVKVSCKASGGTFSSYSFNWVRQAPGQGLEWMARIIPILGLANYAQKFQGRVTLTADESTSTAYMELSSLRSEDTAIFYCAGMVLGQLGFDPWGQGTLVTVSS
VL: QFMLTQPHSVSESPGRTVTISCTRSSGSIARNYVHWYQHRPGSSPTTVIYEDDQRPSGVPDRFSGSIDSSSNSASLTISGLKPEDEADYFCQSYDSNIWVFGGGTKLTVLG
notes: as for B5

Continued, binder first:

B1: TMEL1007 (antibody, V domains shown)
VH: HVHLVQSGAEVKKPGSSVKVSCTASGGSFSSNPISWVRQAPGHGLQWMGGFVPLFGTANYAPSFHGRLTITADESTSTTYMELNSLRSEDSAVYYCARDFNWNFDFWGQGTLVTVSS
VL: QSALTQPASVSGSPGQSITISCTGTSSDIGSYNLVSWYRQYPGKAPKLMIYEVNKRPSGVSNRFSGSKSGNTASLTISGLQAEDEADYYCCSYAGTTTFVIFGRGTKLTVLG
notes: as for B5
- binding result [1]: binds

B3: TMEL1008 (antibody, V domains shown)
VH: QVQLVQSGAEVKKPGSSVKVSCKASGGTFNRDGIIWVRQAPGQGLEWMGRIIPILGIANYAQKFQGRVTIIADKSTSTAYMELSSLRSEDTAVYYCARESEVGRGMDVWGQGTTVTVSS
VL: ASALTQPASVSGSPGQSITISCTGTSSDVGDYNYVSWYQQHPGKAPKLMIYDVSNRPSGVSHRFSGSKSGNTASLTISGLQAEDEADYYCSSYTISSTLGVFGPGTKVTVLG
notes: as for B5
- binding result [3]: binds

B4: TMEL1014 (antibody, V domains shown)
VH: SVQLVESGGGVVQPGRSLRLSCAASGFTFSSYTMHWVRQAPGKGLEWVALISYDGSNKYYADSVKGRFTISRDNPKNTLYLQMNSLRVEDTAVYYCARDWTLGYWGQGTLVTVSS
VL: VSSELTQDPAVSVALGQTVRITCQGDSLRNYYANWYQQKPGQAPILVIYDKNNRPSGIPDRFSGSSSGNTASLTITGAQAEDEADYYCNSRDSSGYHLVFGGGTKLTVLG
notes: as for B5
- binding result [4]: binds
